According to paper PMC4422707:
Where “and” joins values, the source holds several entries; their conditions need not be identical. Equal values may be shown once.

Biological target: His-SUMO-2B protein (FMDV non-structural 2B protein fused to SUMO) (foot-and-mouth disease virus (FMDV) serotype Asia1)
Assay: cross-linking

## His-SUMO-2B protein (FMDV non-structural 2B protein fused to SUMO) (natural protein)
  stoichiometry N: 2 and 4 and 6
